In the nanobody polyreactivity screen of Harvey et al. (2022):

Assay: yeast display, Sf9 membrane polyspecificity reagent, FACS + sequencing; frameworks hold sequencing errors
In short: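 Using colony PCR, genes from sorted yeast display clones were amplified, then sequenced on MiSeq at 2 × 250 and filtered by CDR length. The clones had been stained with 10% biotinylated, detergent-solubilized Sf9 membrane reagent for 1 hour at 4 °C and sorted by FACS into low and high (top ~1%) gates on anti-HA and streptavidin fluorescence. Polyreactivity labels come from the gate of origin.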

Row | Sequence | polyreactivity (PSR sort gate)
1 | QVQLVESGGGLVQAGGSLRLSCAASGSTFFRYAMGWYRQAPGKERELVAAITSSGGRTYYADSVKGRFTISRDNAKNTVYLQMNSLKPEDTAVYYCADASGTSPYDYWGQGTQVTVSS | high polyreactivity
2 | QVQLVESGGGLVQAGGSLRLSCAASGSTFFSKAMGWSRQEPGKERELVAAISRSGATTSYADSVKGRFTISRDNAKNTVYLQMNSLKPEDTAVYYCAVGRRYYQDYDYSGQGTQVTVSS | high polyreactivity
3 | QVQLVESGGGLVQAGGSLRLSCAASGSTFFSNAMGWYRQAPGKERELVAAISGSGDSTYYADSVKGRFTISRDNAKNTVYLQMNSLKPEDTAVYYCAARLSTAHYYLGDYWGQGTEVTVSS | low polyreactivity
4 | QVQLVESGGGLVQAGGSLRLSCAASGSTFFTYAMGWYRQAPGKERELVAAISWSGGTTYYADSVKGRFTISRDNAKNTVYLQMNSLKPEDTAVYYCASDRDGILKANDYWGQGTQVTVSS | low polyreactivity
5 | QVQLVESGGGLVQAGGSLRLSCAASGSTFFTYAMGWYRQAPGKERELVAGISYSGGSTYYADSVKGRFTISRDNAKNTVYVQMNSLKPEDTAVYYCNAYISYGDFDLEFYYWGQGTQVTVSS | low polyreactivity
6 | QVQLVESGGGLVQAGGSLRLSCAASGSTFFYNAMGWYRQAPGKERELVAAISRGGGITYYADSVKGRFTISRDNAKNTVYLQMNSLKPEDTAVYYCQYLSRGLNTYRSSQGDDDYWGQGTQVTVSS | high polyreactivity
7 | QVQLVESGGGLVQAGGSLRLSCAASGSTFFYYAMGWYRQAPGKDRELVAAISGGGGDTTYADSVKGRFTISRDNAKNTVYLQMNSLKPEDTAVYYCAAVPGSFGSGIFDYWGQGTQATVSS | low polyreactivity
8 | QVQLVESGGGLVQAGGSLRLSCAASGSTFFYYAMGWYRQAPGKERELVAAISQSSASTYYADSVKGRFTISRDNAKNTIYLQMNSLKPEDTAVYYCAADYWSVPYIYEYWGQGTQVTVSS | high polyreactivity
9 | QVQLVESGGGLVQAGGSLRLSCAASGSTFGANAMGGYRQAPGKERELVATISSGGRTYYADSVKGRFTISRDNAKNTVYLQMNSLKPEDTAVYYCNAGADYTYVYISVYVLYDYWGQGTQVTVSS | low polyreactivity
10 | QVQLVESGGGLVQAGGSLRLSCAASGSTFGANAMGLYRQAPGKEREFVAAISRSGVRTYYADSVKGRFTISRDNAQNTVYLQMNSLKPEDTAVYYCAADGYWWTYTRYDYWGQGTQVTVSS | low polyreactivity
11 | QVQLVESGGGLVQAGGSLRLSCAASGSTFGANAMGWYRQAPGKERELVAAITYDGGSTYYADSVKGRFTISRDTAKNTVYLQMNSLKPEDTAVYYCAADFHIDSYYWGYYWGQGTQVTVSS | low polyreactivity
12 | QVQLVESGGGLVQAGGSLRLSCAASGSTFGAYAMGWYRQAPGKEREFVAGISVRGGSTYYADSVKGRFTISRDNAKNTVYLQMNSLKPEDTAVYYCAARRVDTRVHVRYRYYYWGQGTQVTVSS | high polyreactivity
13 | QVQLVESGGGLVQAGGSLRLSCAASGSTFGAYAMGWYRQAPGKERELVAAISKRGGSTYYADSVKGRFTISLDNAKNTVYLQMNSLKPEDTAVYYCATDHFSPTYGYWGQGTQVTVSS | low polyreactivity
14 | QVQLVESGGGLVQAGGSLRLSCAASGSTFGAYAMGWYRQAPGKERELVAAISSSDGSTYYADSVKGRFTISRDNAKNTVYLQMNSLKPEDTAVYYCAAEYYSAVYIDEYWYDYWGQGTQVTVSS | high polyreactivity
15 | QVQLVESGGGLVQAGGSLRLSCAASGSTFGAYAMGWYRQAPGKERELVAAISSSGGRTYYADSVKGRFTISRDNAKNTVYLQMNSLKPEDTAVYYCATYYRHYDLLYYYWGQGTQVTVSS | high polyreactivity
16 | QVQLVESGGGLVQAGGSLRLSCAASGSTFGDYAMGWYRPAPGKERELVAAITIGGITTYADSVKGRFTISRDNAKNTVYLQMNSLKPEDTAVYYCAAAERGDWDDYWGQGTQVTVSS | low polyreactivity
17 | QVQLVESGGGLVQAGGSLRLSCAASGSTFGDYAMGWYRQAPGKERELVAAISFSDDSTYYADSVKGRFTISRDNAKNTVYLQMNSLKPEDTAVYYCAKEAEYSTPGGDYWGQGTQVTVSS | low polyreactivity
18 | QVQLVESGGGLVQAGGSLRLSCAASGSTFGENAMGWYRQAPGKERELVAAINYSGGSTYYADSVKGRFTISRDNAKNTVYLQMNRLKPEDTAVYYCAAVNLPQLYYDYDYWGQGTQVTVSS | low polyreactivity
19 | QVQLVESGGGLVQAGGSLRLSCAASGSTFGENDMGWYRQAPGKERELVAAITWSGGSTYYADSVKGRFTISRDNAKNPVYLQLNSLNPEDTAVYYCAARSTYRHWYRTGSRFDYWGQGTQVTVSS | low polyreactivity
20 | QVQLVESGGGLVQAGGSLRLSCAASGSTFGEYAMGWYRQAPGKERELVAAITFSGGSTYYADSVKGRFTISRDNAKNTVYLQMNSLKPEDTAVYYCNADGVWVYGYRWEWLWYDYWGQGTQVTVSS | low polyreactivity
21 | QVQLVESGGGLVQAGGSLRLSCAASGSTFGFNAMGWYRQAPGKERELVAAIRGGDSTNYADSVKGRFTISRDNAKNTVYLQMNSLKPEDTAVYYCAAVLRYVVRPYSYWSGGYDYWGQGTQVTVSS | high polyreactivity
22 | QVQLVESGGGLVQAGGSLRLSCAASGSTFGFNAMGWYRQAPGKERELVAAISRSGGSTYYADSVKGRFTISRDNAKNTVYLQMNSLKPEDTAVYYCAVGYRYLKWVDYWGQGTQVTVSS | high polyreactivity

Row | Sequence | polyreactivity (PSR sort gate)
23 | QVQLVESGGGLVQAGGSLRLSCAASGSTFGFNAMGWYRQAPGKERELVASITSGDSTYYADSVKGRFTISRDNAKNTVYLQMNSLKPEDTAVYYCAKVGGGGQAGDNPILSDYWGQGTQVTVSS | low polyreactivity
24 | QVQLVESGGGLVQAGGSLRLSCAASGSTFGFNVMGWYRPAPGKERELVAAIRYRDGSTYYADSVKGRFTISRDNAKNTVYLQMNSLKPEDTAVYYCNTRITQVGDYIYDYWGQGTQVTVSS | low polyreactivity
25 | QVQLVESGGGLVQAGGSLRLSCAASGSTFGFNVMGWYRQAPGKERELVAVITSDGNTYYADSVKGRFTISRDNAKNTVYLQMNSLKPEDTAVYYCAVSELGTPYGYWGQGTQVTVSS | low polyreactivity
26 | QVQLVESGGGLVQAGGSLRLSCAASGSTFGFYAMGWYRQAPGKERELVAAIDWISGSTYYADSVKGRFTISRDNAKNTVYLQLNSLKPEDTAVYYCAAQFYYHFRYHFDWGQGTQVTVSS | low polyreactivity
27 | QVQLVESGGGLVQAGGSLRLSCAASGSTFGGNAMGWYRQAPGKEREFVAAIRFSGGSTYYADSVKGRFTISRDNAKNTVYLQMNSLKPEDTAVYFCAKRGYGHLIPIAYEYWGQGTQVTVSS | low polyreactivity
28 | QVQLVESGGGLVQAGGSLRLSCAASGSTFGGNAMGWYRQAPGKERELVAAITVGGDSTYYADSVKGRFTISRDNAKNTVYLQMNSLKPEVTAVYYCAAGPWYKFYDWRPWFSYDYWGQGTQVTVSS | low polyreactivity
29 | QVQLVESGGGLVQAGGSLRLSCAASGSTFGGYAKGWYRQAPGKERELVAAISGSGVRTYYADSVKGRFTISRDNAKNTVYLQMNSLKPEDTAVYYCAKRVRYPGDRYYYWGQGTQVTVSS | high polyreactivity
30 | QVQLVESGGGLVQAGGSLRLSCAASGSTFGGYAMGWYRQAPGKEREFVAAITKRGGRTYYADSVKGRFTISRDNAKNTVYLQMNSLKPEDTAVYYCATRGINYAEYDYWGQGTQVTVSS | high polyreactivity
31 | QVQLVESGGGLVQAGGSLRLSCAASGSTFGGYAMGWYRQAPGKERELVADIDSIGGSTYYADSVKGRFTISRDNAKNTVYLQMNSLKPEDTAVYYCAARRFDTALVLYDYWGQGTQVTVSS | low polyreactivity
32 | QVQLVESGGGLVQAGGSLRLSCAASGSTFGGYGMGWYRQAPGQERELVASISGGGNTNYADSVKGRFTISRDNAKNTVYLQKNSLKPEDTAVYYCNARINSWYSTYRYYYWGQGTQVTVSS | low polyreactivity
33 | QVQLVESGGGLVQAGGSLRLSCAASGSTFGINAMGWYRQAPGKERELVASITRRGGSTYYADSVKGRFTISRDNAKNTVYLQMHSLKPEDTAVYYCAAGNKRRFEGDYWGQGTQVTVSS | high polyreactivity
34 | QVQLVESGGGLVQAGGSLRLSCAASGSTFGIYVMGWYRQAPGKERELVADISSSGGSTYYADSVKGRFTISRDNAKNTVYLQMNSLKPEDTAVYYCNAYHWDGDGVFYEYDYWGQGTQVTVSS | high polyreactivity
35 | QVQLVESGGGLVQAGGSLRLSCAASGSTFGKYAMGWYRQAPGKERELVAAISKSGGSTYYADSVKGRFTISRDNAKNTVYLQMNSLKPEDTAVYYCNAYPHAYTGSTREGDYWGQGTQVTVSS | high polyreactivity
36 | QVQLVESGGGLVQAGGSLRLSCAASGSTFGKYAMGWYRQAPGKERELVAAITRRTGSTYYADSVKGRFTISRDNAKNTVYLQMNSLKPVDTAVYYCAARLPQYRYDYWGQGTQVTVSS | high polyreactivity
37 | QVQLVESGGGLVQAGGSLRLSCAASGSTFGKYAMGWYRQAPGKERELVARIDSGDRTRYADSVKGRFTISRDNAKNTVYLQMNSLKPEDTAVYYCAARYVGARNAYRMGYWGQGTQVTVSS | high polyreactivity
38 | QVQLVESGGGLVQAGGSLRLSCAASGSTFGLNVMGWYRQAPGKEREFVAGISRSGGRTYYADSVKGRFTISRDNAKNTVYLQMNSLKPEDTAVYYRAADYWTGITPDAIGDYWGQGTQVTVSS | low polyreactivity
39 | QVQLVESGGGLVQAGGSLRLSCAASGSTFGLYAMGWYRQAPGKERELVAAISSGGRTNYADSVKGRFTISRDNAKNTVYLQMNSLKPEDTAVYYCASAYIRGSRRYDYWGQGTQVTVSS | high polyreactivity
40 | QVQLVESGGGLVQAGGSLRLSCAASGSTFGLYAMGWYRQAPGKERELVAAITSTGGSTYYADSVKGRFTISRDNAKNTVYLQMNSLKPEDTAVYYCARDYRSGYDYWGQGTQVTVSS | low polyreactivity
41 | QVQLVESGGGLVQAGGSLRLSCAASGSTFGLYAMGWYRQAPGKERELVADITWSGGSTYYADSVKGRFTISRDNAKNTVYLQMNSLKPEDTAVYYCAADGYDQYPLWAPPGDYWGQGTQVTVSS | low polyreactivity
42 | QVQLVESGGGLVQAGGSLRLSCAASGSTFGLYAMGWYSQAPGKEREMVAVISWRGGSTIYADSVKGRFTISRDNAKITVYLEMNSLKPEDTAVYYCNAKQSYYYPWRGYNYWGQGTQVTVSS | high polyreactivity
43 | QVQLVESGGGLVQAGGSLRLSCAASGSTFGLYTMGWYRQAPGKERELVASISIGGSTYYADSVKGRFTISRDNAKNTVYLQMNSLKPEDTAVYYCAADVKRDRVWGGDYWGQGTQVTVSS | low polyreactivity
